Measured values as given in patent publication US20250179195A1 (LES LABORATOIRES SERVIER, published 2025).
Changes are numbered by the printed parent chain. In names and notes the source's numbering stands.

B1: anti-FLT3 antibody 17526 (antibody, human IgG1, kappa, L234A L235A, V domains shown)
VH: QVTLKESGPVLVKPTETLTLTCTISGFSLGNARMGVSWIRQPPGKALEWLAHIFSNDEKSYSTSLKSRLTISKDTSKSQVVLTMTNMDPVDTATYYCARIVGYVDWLLPFDYWGQGTLVTVSS
VL: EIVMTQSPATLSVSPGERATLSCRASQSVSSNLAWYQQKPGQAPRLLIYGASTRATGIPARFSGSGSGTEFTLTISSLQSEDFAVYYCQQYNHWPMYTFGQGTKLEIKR
notes: Human IgG1-LALA / kappa
B2: anti-FLT3 antibody 17667 (antibody, human IgG1, kappa, L234A L235A, V domains shown)
VH: B1 VH with I24V, G30S, K59R, T63P, D74G
VL: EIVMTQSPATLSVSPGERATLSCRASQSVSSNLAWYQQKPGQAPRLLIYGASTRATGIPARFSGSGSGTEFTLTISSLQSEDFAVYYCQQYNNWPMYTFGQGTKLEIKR
notes: Human IgG1-LALA / kappa
B3: anti-FLT3 antibody 17566 (antibody, human IgG1, kappa, L234A L235A, V domains shown)
VH: QVTLKESGPVLVKPTETLTLTCTVSGFSFNNARMGVNWIRQPPGKALEWLAHIFSNDEKSYSTSLKSRLTISKDISKSQVVLTMTNMDPVDTATYYCARIVGYGSGWRLLGDYWGQGTLVTVSS
VL: AIQMTQSPSSLSASVGDRVTITCRASQGITNDLGWYQQKPGKAPKLLIYAASSLQSGVPSRFSGSGSGTDFTLTISSLQPEDFATYYCLQDYNYPWTFGQGTKVEIKR
notes: Human IgG1-LALA (L234A/L235A) / kappa, germline-corrected variable domains
B4: anti-FLT3 antibody 17543 (antibody, human IgG1, kappa, L234A L235A, V domains shown)
VH: QVTLKESGPVLVKPTETLTLTCTVSGFSLINARMGVTWIRQPPGKALEWLAHIFSNDEKSYSTSLKSRLTISKDTSKSQVVLTMTNMDPVDTATYYCARIPGYSRGWDYYYYGMDVWGQGTMVTVSS
VL: B3 VL with A1D, T30R, L46R, S53T, D70E, D91H, Y92N, N93S
notes: Human IgG1-LALA / kappa
B5: anti-FLT3 antibody 17679 (antibody, human IgG1, kappa, L234A L235A, V domains shown)
VH: QVQLQESGPGLVKPSQTLSLTCTVSGGSISSGGYYWSWIRQHPGKGLEWIGYIYYSGRTNYNPSLKSRVTISEDTSKNQFSLKVSSVTAADTAVYYCARDQDGSGWYFDYWGQGALVTVSS
VL: EIVLTQSPATLSLSPGERATLSCRASQSVSSYLAWYQQKPGQAPRLLIYDASNRATGIPARFSGSGSGTDFTLTIRSLEPEDFAVYYCQQRSNWWTFGQGTKVEIKR
notes: Human IgG1-LALA / kappa
B6: anti-FLT3 antibody 17497 (antibody, human IgG1, kappa, L234A L235A, V domains shown)
VH: QVQLQESGPGLVKPSGTLSLTCAVSGGSISSTNWWSWVRQPPGKGLEWIGEISHRGSTNYNPSLKSRVTISVDKSKNQFSLKLSSVTAADTAVYYCARDPEMTLYYYYGMDVWGQGTTVTVSS
VL: B3 VL with A1D, Q27R, T30R, L46R, D70E, D91H, Y92N, N93S, W96L, Q100G
notes: Human IgG1-LALA / kappa

Biological target: T1, mouse FLT3 expressed on CHO-S cells (mouse, UniProt Q00342 28-1000)
T1 construct: whole, on cells
Assay: flow cytometry (iQue Screener PLUS) on CHO-S cells transiently expressing mouse FLT3; AF647 anti-human IgG (H+L) secondary; GeoMean RL1-H
Method: (§1) The anti-FLT3 antibodies were incubated with the hamster CHO-S cell line transiently expressing human, cynomolgus or mouse FLT3 for 30 minutes at 4° C. The cells were washed twice and subsequently incubated for an additional 20 minutes with AF647-conjugated secondary anti-human IgG (H+L) antibody. After the washing step, antibody binding was detected using the high-throughput flow cytometer iQue Screener PLUS (Sartorius) measuring the GeoMean of AF647 signal in each well. Every concentration was assayed in triplicate and a 12-point titration curve was generated for each antibody.

T1 sequence (Q00342 28-1000): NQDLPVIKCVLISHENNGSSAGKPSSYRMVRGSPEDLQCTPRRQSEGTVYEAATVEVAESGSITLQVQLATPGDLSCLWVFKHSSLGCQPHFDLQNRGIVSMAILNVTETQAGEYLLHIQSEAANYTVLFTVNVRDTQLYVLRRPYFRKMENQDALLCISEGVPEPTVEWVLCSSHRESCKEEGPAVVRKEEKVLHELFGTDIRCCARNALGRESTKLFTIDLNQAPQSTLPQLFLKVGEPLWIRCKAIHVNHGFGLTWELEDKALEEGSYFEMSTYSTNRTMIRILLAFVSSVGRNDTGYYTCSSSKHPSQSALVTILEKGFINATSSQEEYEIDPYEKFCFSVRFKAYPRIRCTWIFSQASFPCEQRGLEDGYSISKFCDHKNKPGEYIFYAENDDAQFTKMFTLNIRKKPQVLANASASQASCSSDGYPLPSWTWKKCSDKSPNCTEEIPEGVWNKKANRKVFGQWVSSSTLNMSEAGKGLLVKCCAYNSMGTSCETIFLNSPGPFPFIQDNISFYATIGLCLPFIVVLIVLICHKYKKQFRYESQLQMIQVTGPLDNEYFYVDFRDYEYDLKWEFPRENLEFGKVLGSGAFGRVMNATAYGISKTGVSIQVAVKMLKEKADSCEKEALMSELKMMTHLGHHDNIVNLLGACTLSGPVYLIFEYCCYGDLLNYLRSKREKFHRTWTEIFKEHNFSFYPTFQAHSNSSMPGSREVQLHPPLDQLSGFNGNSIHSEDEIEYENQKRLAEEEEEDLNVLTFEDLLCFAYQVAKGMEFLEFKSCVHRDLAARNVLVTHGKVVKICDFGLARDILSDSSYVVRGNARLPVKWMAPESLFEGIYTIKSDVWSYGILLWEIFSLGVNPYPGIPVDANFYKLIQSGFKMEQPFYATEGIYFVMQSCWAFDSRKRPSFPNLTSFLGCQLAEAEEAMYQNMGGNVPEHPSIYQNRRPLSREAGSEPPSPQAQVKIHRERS

binding result | Binder
no binding | B1
no binding | B2
no binding | B3
no binding | B4
no binding | B5

Biological target: T1, mouse FLT3 expressed on CHO-S cells
Assay: flow cytometry (iQue Screener PLUS) on CHO-S cells transiently expressing mouse FLT3; AF647 anti-human IgG (H+L) secondary; GeoMean RL1-H; 12-point titration
Method: as §1

EC50 (read off the curve) [µg/mL] | Binder
~0.01 | B6

Biological target: T2, human FLT3 expressed on cells (human, UniProt P36888 27-993)
T2 construct: endogenous on EOL-1 cells and primary CD34+ stem cells in the functional rows; also called CD135
Assay: flow cytometry (iQue Screener PLUS) on CHO-S cells transiently expressing human FLT3; AF647 anti-human IgG (H+L) secondary; GeoMean RL1-H; 12-point titration
Method: as §1

binding result | EC50 (read off the curve) [µg/mL] | Binder
binds | – | B1
binds | – | B2
binds | – | B3
binds | – | B6
– | ~0.03 | B4
binds | – | B5

Biological target: T3, cynomolgus FLT3 expressed on CHO-S cells (cynomolgus, UniProt A0A2K5VQ48 27-993)
T3 construct: whole, on cells
Assay: flow cytometry (iQue Screener PLUS) on CHO-S cells transiently expressing cynomolgus FLT3; AF647 anti-human IgG (H+L) secondary; GeoMean RL1-H; 12-point titration
Method: as §1

EC50 (read off the curve) [µg/mL] | Binder
~0.02 | B1
~0.02 | B2
~0.03 | B3
~0.01 | B6
~0.04 | B4
~0.04 | B5

Biological target: T4, recombinant human FLT3 ECD his-tagged fusion receptor (Sino Biological) (human, UniProt P36888 27-543)
T4 construct: Bought protein; also called FLT3-his; His-tagged FLT3; not shown: His tag
Assay: bio-layer interferometry (Octet QK384); FLT3-his immobilized on anti-penta-HIS (HIS1K) biosensor; 500 nM antibody, 600 s association

binding result | Binder
binds | B1
binds | B2
binds | B3
binds | B6
binds | B5
